In PMC5073374:

Target: Link module from human TSG-6 (Link_TSG6) (human) (UniProt P98066)
Assay: AUC

stoichiometry N: 2
Substance: Link module from human TSG-6 (Link_TSG6) (from UniProt P98066 36-133) (domain or fragment)
